According to PMC9482650, “Quantitative fragmentomics allow affinity mapping of interactomes” (Nature Communications, 2022):

T1: FRMPD1, Q5SYB0
T1 sequence (Q5SYB0 52-145, limits assumed, looked up): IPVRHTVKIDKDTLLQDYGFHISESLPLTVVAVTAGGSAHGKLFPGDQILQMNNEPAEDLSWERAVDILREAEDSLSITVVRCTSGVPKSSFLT

T2: DVL3, Q92997
T2 sequence (Q92997 244-331, limits assumed, looked up): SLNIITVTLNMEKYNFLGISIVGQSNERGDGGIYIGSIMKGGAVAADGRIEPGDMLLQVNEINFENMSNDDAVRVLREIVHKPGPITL

T3: SHANK1, Q9Y566
T3 sequence (Q9Y566 658-767, limits assumed, looked up): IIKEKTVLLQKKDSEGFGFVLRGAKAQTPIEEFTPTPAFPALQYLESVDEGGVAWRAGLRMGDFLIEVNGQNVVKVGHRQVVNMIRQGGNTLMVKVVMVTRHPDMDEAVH

T4: APBA2_1, Q99767
T4 sequence (Q99767 563-664, limits assumed, looked up): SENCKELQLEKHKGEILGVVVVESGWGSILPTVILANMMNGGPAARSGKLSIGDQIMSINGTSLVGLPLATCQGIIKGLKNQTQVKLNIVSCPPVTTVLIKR

T5: APBA3_1, O96018
T5 sequence (O96018 389-490, limits assumed, looked up): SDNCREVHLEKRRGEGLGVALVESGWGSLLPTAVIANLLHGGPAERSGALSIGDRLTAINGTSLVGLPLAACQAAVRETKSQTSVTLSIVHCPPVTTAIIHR

T6: SYNJ2BP, P57105
T6 sequence (P57105 8-110, limits assumed, looked up): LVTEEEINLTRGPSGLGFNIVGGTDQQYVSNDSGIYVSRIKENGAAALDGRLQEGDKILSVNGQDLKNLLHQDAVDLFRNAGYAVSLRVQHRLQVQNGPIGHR

T7: DLG3_2, Q92796
T7 sequence (Q92796 221-321, limits assumed, looked up): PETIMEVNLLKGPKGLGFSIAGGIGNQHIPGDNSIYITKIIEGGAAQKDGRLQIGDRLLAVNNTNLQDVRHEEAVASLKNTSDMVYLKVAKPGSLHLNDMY

T8: SNTB1, Q13884
T8 sequence (Q13884 107-205, limits assumed, looked up): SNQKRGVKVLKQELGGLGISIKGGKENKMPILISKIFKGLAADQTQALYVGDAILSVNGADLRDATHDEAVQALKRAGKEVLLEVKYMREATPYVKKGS

T9: ARHGAP21, Q5T5U3
T9 sequence (Q5T5U3 45-169, limits assumed, looked up): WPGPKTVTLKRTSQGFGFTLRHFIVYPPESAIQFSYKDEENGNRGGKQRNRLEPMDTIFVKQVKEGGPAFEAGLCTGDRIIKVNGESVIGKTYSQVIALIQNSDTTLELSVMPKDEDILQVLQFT

T10: DLG3_1, Q92796
T10 sequence (Q92796 125-227, limits assumed, looked up): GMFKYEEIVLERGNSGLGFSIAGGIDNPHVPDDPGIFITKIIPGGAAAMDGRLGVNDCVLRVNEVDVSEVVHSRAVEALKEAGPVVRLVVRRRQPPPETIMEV

T11: GRIP1_5, Q9Y3R0
T11 sequence (Q9Y3R0 568-668, limits assumed, looked up): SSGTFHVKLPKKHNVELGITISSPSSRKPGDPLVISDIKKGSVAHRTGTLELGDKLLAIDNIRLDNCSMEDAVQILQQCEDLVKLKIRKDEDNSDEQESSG

T12: PDZD7_3, Q9H5P4
T12 sequence (Q9H5P4 857-944, limits assumed, looked up): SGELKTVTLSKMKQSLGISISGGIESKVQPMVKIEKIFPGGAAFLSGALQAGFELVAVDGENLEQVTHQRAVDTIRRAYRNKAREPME

T13: TJP3_3, O95049
T13 sequence (O95049 375-456, limits assumed, looked up): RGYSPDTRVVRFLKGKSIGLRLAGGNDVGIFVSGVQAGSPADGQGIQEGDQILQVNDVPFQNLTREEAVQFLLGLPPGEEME


Target: DLG1_2, Q12959
Sequence (Q12959 314-412): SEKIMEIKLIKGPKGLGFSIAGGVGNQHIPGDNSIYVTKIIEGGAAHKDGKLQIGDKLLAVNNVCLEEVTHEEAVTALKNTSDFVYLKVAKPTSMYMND
Assay: holdup assay
Parameters: key: below the threshold = too weak to quantify, mostly under pKd 3.1 to 4
Settings: plain residues with an end cap or a label only (N-terminal biotin on a linker: ado-ado)

pKd	Binder
3.95	GDSSRKEYFI [GYPC, P04921]
below the threshold	GSQSQVETEA [FKBP4, Q02790]
3.59	NKSEPFLTWL [WWTR1, Q9GZV5]

Target: GRID2IP_2, A4D2P6
Sequence (A4D2P6 272-370): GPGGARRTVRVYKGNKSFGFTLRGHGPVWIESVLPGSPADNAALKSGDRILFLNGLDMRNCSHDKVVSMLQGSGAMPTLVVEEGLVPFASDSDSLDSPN
Assay: holdup assay
Parameters: key: below the threshold = too weak to quantify, mostly under pKd 3.1 to 4
Settings: plain residues with an end cap or a label only (N-terminal biotin on a linker: ado-ado)

pKd	Binder
below the threshold	GDSSRKEYFI [GYPC, P04921]
3.68	GSQSQVETEA [FKBP4, Q02790]
4.65	NKSEPFLTWL [WWTR1, Q9GZV5]

Target: T1, FRMPD1, Q5SYB0
Assay: holdup assay
Parameters: key: below the threshold = too weak to quantify, mostly under pKd 3.1 to 4
Settings: plain residues with an end cap or a label only (N-terminal biotin on a linker: ado-ado)

pKd	Binder
below the threshold	GDSSRKEYFI [GYPC, P04921]
below the threshold	GSQSQVETEA [FKBP4, Q02790]
below the threshold	NKSEPFLTWL [WWTR1, Q9GZV5]

Target: MAGI2_6, Q86UL8
Sequence (Q86UL8 1141-1229): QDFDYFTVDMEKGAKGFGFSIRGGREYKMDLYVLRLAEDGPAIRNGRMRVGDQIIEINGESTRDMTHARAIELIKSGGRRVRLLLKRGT
Assay: holdup assay
Parameters: key: below the threshold = too weak to quantify, mostly under pKd 3.1 to 4
Settings: plain residues with an end cap or a label only (N-terminal biotin on a linker: ado-ado)

pKd	Binder
below the threshold	GDSSRKEYFI [GYPC, P04921]
below the threshold	GSQSQVETEA [FKBP4, Q02790]
4.9	NKSEPFLTWL [WWTR1, Q9GZV5]

Target: T2, DVL3, Q92997
Assay: holdup assay
Parameters: key: below the threshold = too weak to quantify, mostly under pKd 3.1 to 4
Settings: plain residues with an end cap or a label only (N-terminal biotin on a linker: ado-ado)

pKd	Binder
4.34	GDSSRKEYFI [GYPC, P04921]
below the threshold	GSQSQVETEA [FKBP4, Q02790]
4.54	NKSEPFLTWL [WWTR1, Q9GZV5]

Target: MAST1, Q9Y2H9
Sequence (Q9Y2H9 962-1065): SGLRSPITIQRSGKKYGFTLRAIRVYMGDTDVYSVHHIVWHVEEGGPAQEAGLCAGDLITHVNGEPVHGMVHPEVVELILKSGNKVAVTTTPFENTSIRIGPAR
Assay: holdup assay
Parameters: key: below the threshold = too weak to quantify, mostly under pKd 3.1 to 4
Settings: plain residues with an end cap or a label only (N-terminal biotin on a linker: ado-ado)

pKd	Binder
below the threshold	GDSSRKEYFI [GYPC, P04921]
3.96	GSQSQVETEA [FKBP4, Q02790]
4.25	NKSEPFLTWL [WWTR1, Q9GZV5]

Target: SCRIB_2, Q14160
Sequence (Q14160 857-960): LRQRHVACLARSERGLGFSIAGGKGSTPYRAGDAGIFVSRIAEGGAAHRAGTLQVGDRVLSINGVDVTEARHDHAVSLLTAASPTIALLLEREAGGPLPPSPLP
Assay: holdup assay
Parameters: key: below the threshold = too weak to quantify, mostly under pKd 3.1 to 4
Settings: plain residues with an end cap or a label only (N-terminal biotin on a linker: ado-ado)

pKd	Binder
3.69	GDSSRKEYFI [GYPC, P04921]
below the threshold	GSQSQVETEA [FKBP4, Q02790]
below the threshold	NKSEPFLTWL [WWTR1, Q9GZV5]

Target: T3, SHANK1, Q9Y566
Assay: holdup assay
Parameters: key: below the threshold = too weak to quantify, mostly under pKd 3.1 to 4
Settings: plain residues with an end cap or a label only (N-terminal biotin on a linker: ado-ado)

pKd	Binder
below the threshold	GDSSRKEYFI [GYPC, P04921]
3.64	GSQSQVETEA [FKBP4, Q02790]
5.29	NKSEPFLTWL [WWTR1, Q9GZV5]

Target: Inadl_6, Q8NI35
Sequence (Q8NI35 1058-1167): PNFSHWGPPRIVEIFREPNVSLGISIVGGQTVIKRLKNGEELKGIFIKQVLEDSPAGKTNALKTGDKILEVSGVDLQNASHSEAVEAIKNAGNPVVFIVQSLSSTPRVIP
Assay: holdup assay
Parameters: key: below the threshold = too weak to quantify, mostly under pKd 3.1 to 4
Settings: plain residues with an end cap or a label only (N-terminal biotin on a linker: ado-ado)

pKd	Binder
3.54	GDSSRKEYFI [GYPC, P04921]
below the threshold	GSQSQVETEA [FKBP4, Q02790]
5.68	NKSEPFLTWL [WWTR1, Q9GZV5]

Target: T4, APBA2_1, Q99767
Assay: holdup assay
Parameters: key: below the threshold = too weak to quantify, mostly under pKd 3.1 to 4
Settings: plain residues with an end cap or a label only (N-terminal biotin on a linker: ado-ado)

pKd	Binder
3.55	GDSSRKEYFI [GYPC, P04921]
below the threshold	GSQSQVETEA [FKBP4, Q02790]
below the threshold	NKSEPFLTWL [WWTR1, Q9GZV5]

Target: T5, APBA3_1, O96018
Assay: holdup assay
Parameters: key: below the threshold = too weak to quantify, mostly under pKd 3.1 to 4
Settings: plain residues with an end cap or a label only (N-terminal biotin on a linker: ado-ado)

pKd	Binder
below the threshold	GDSSRKEYFI [GYPC, P04921]
below the threshold	GSQSQVETEA [FKBP4, Q02790]
3.5	NKSEPFLTWL [WWTR1, Q9GZV5]

Target: T6, SYNJ2BP, P57105
Assay: holdup assay
Parameters: key: below the threshold = too weak to quantify, mostly under pKd 3.1 to 4
Settings: plain residues with an end cap or a label only (N-terminal biotin on a linker: ado-ado)

pKd	Binder
below the threshold	GDSSRKEYFI [GYPC, P04921]
below the threshold	GSQSQVETEA [FKBP4, Q02790]
4.52	NKSEPFLTWL [WWTR1, Q9GZV5]

Target: T7, DLG3_2, Q92796
Assay: holdup assay
Parameters: key: below the threshold = too weak to quantify, mostly under pKd 3.1 to 4
Settings: plain residues with an end cap or a label only (N-terminal biotin on a linker: ado-ado)

pKd	Binder
4.19	GDSSRKEYFI [GYPC, P04921]
4.2	GSQSQVETEA [FKBP4, Q02790]
below the threshold	NKSEPFLTWL [WWTR1, Q9GZV5]

Target: T8, SNTB1, Q13884
Assay: holdup assay
Parameters: key: below the threshold = too weak to quantify, mostly under pKd 3.1 to 4
Settings: plain residues with an end cap or a label only (N-terminal biotin on a linker: ado-ado)

pKd	Binder
below the threshold	GDSSRKEYFI [GYPC, P04921]
below the threshold	GSQSQVETEA [FKBP4, Q02790]
3.79	NKSEPFLTWL [WWTR1, Q9GZV5]

Target: HTRA1, Q92743
Sequence (Q92743 360-477): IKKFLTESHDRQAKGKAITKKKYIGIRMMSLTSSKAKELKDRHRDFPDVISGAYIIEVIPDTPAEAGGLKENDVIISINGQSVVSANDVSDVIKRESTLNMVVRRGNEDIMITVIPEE
Assay: holdup assay
Parameters: key: below the threshold = too weak to quantify, mostly under pKd 3.1 to 4
Settings: plain residues with an end cap or a label only (N-terminal biotin on a linker: ado-ado)

pKd	Binder
4.74	GDSSRKEYFI [GYPC, P04921]
3.85	GSQSQVETEA [FKBP4, Q02790]
4.91	NKSEPFLTWL [WWTR1, Q9GZV5]

Target: GRIP2_4, Q9C0E4
Sequence (Q9C0E4 446-548): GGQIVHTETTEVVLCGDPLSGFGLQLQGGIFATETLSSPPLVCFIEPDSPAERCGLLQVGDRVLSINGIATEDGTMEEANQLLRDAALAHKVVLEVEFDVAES
Assay: holdup assay
Parameters: key: below the threshold = too weak to quantify, mostly under pKd 3.1 to 4
Settings: plain residues with an end cap or a label only (N-terminal biotin on a linker: ado-ado)

pKd	Binder
below the threshold	GDSSRKEYFI [GYPC, P04921]
below the threshold	GSQSQVETEA [FKBP4, Q02790]
below the threshold	NKSEPFLTWL [WWTR1, Q9GZV5]

Target: PDLIM1, O00151
Sequence (O00151 1-87): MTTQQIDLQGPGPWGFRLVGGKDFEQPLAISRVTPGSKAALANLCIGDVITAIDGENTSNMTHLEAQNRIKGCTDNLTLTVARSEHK
Assay: holdup assay
Parameters: key: below the threshold = too weak to quantify, mostly under pKd 3.1 to 4
Settings: plain residues with an end cap or a label only (N-terminal biotin on a linker: ado-ado)

pKd	Binder
below the threshold	GDSSRKEYFI [GYPC, P04921]
below the threshold	GSQSQVETEA [FKBP4, Q02790]
4.13	NKSEPFLTWL [WWTR1, Q9GZV5]

Target: MAGI2_5, Q86UL8
Sequence (Q86UL8 915-1017): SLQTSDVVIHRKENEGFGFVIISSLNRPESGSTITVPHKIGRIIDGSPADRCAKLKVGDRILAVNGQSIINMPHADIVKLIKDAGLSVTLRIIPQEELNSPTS
Assay: holdup assay
Parameters: key: below the threshold = too weak to quantify, mostly under pKd 3.1 to 4
Settings: plain residues with an end cap or a label only (N-terminal biotin on a linker: ado-ado)

pKd	Binder
below the threshold	GDSSRKEYFI [GYPC, P04921]
below the threshold	GSQSQVETEA [FKBP4, Q02790]
3.94	NKSEPFLTWL [WWTR1, Q9GZV5]

Target: Inadl_4, Q8NI35
Sequence (Q8NI35 547-651): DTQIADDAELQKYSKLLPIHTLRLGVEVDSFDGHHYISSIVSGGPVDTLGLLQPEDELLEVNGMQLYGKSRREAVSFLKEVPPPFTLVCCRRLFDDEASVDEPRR
Assay: holdup assay
Parameters: key: below the threshold = too weak to quantify, mostly under pKd 3.1 to 4
Settings: plain residues with an end cap or a label only (N-terminal biotin on a linker: ado-ado)

pKd	Binder
below the threshold	GDSSRKEYFI [GYPC, P04921]
below the threshold	GSQSQVETEA [FKBP4, Q02790]
below the threshold	NKSEPFLTWL [WWTR1, Q9GZV5]

Target: T9, ARHGAP21, Q5T5U3
Assay: holdup assay
Parameters: key: below the threshold = too weak to quantify, mostly under pKd 3.1 to 4
Settings: plain residues with an end cap or a label only (N-terminal biotin on a linker: ado-ado)

pKd	Binder
below the threshold	GDSSRKEYFI [GYPC, P04921]
below the threshold	GSQSQVETEA [FKBP4, Q02790]
4.88	NKSEPFLTWL [WWTR1, Q9GZV5]

Target: T10, DLG3_1, Q92796
Assay: holdup assay
Parameters: key: below the threshold = too weak to quantify, mostly under pKd 3.1 to 4
Settings: plain residues with an end cap or a label only (N-terminal biotin on a linker: ado-ado)

pKd	Binder
below the threshold	GDSSRKEYFI [GYPC, P04921]
below the threshold	GSQSQVETEA [FKBP4, Q02790]
below the threshold	NKSEPFLTWL [WWTR1, Q9GZV5]

Target: T11, GRIP1_5, Q9Y3R0
Assay: holdup assay
Parameters: key: below the threshold = too weak to quantify, mostly under pKd 3.1 to 4
Settings: plain residues with an end cap or a label only (N-terminal biotin on a linker: ado-ado)

pKd	Binder
below the threshold	GDSSRKEYFI [GYPC, P04921]
below the threshold	GSQSQVETEA [FKBP4, Q02790]
below the threshold	NKSEPFLTWL [WWTR1, Q9GZV5]

Target: T12, PDZD7_3, Q9H5P4
Assay: holdup assay
Parameters: key: below the threshold = too weak to quantify, mostly under pKd 3.1 to 4
Settings: plain residues with an end cap or a label only (N-terminal biotin on a linker: ado-ado)

pKd	Binder
below the threshold	GDSSRKEYFI [GYPC, P04921]
below the threshold	GSQSQVETEA [FKBP4, Q02790]
5.12	NKSEPFLTWL [WWTR1, Q9GZV5]

Target: T13, TJP3_3, O95049
Assay: holdup assay
Parameters: key: below the threshold = too weak to quantify, mostly under pKd 3.1 to 4
Settings: plain residues with an end cap or a label only (N-terminal biotin on a linker: ado-ado)

pKd	Binder
3.69	GDSSRKEYFI [GYPC, P04921]
below the threshold	GSQSQVETEA [FKBP4, Q02790]
4.15	NKSEPFLTWL [WWTR1, Q9GZV5]
